Reference: publication PMC5179029, “Selection and Characterization of Tau Binding ᴅ-Enantiomeric Peptides with Potential for Therapy of Alzheimer Disease” (PLoS ONE, 2016)
Square brackets hold non-standard residues; d marks the D form. Ends that are not written are not given here. * marks the point of attachment. 6FAM = O=C1OC2(c3ccc(O)cc3Oc3cc(O)ccc32)c2cc(C(=O)*)ccc21

Columns and labels:
[1] = test system: inducible N2aTau^4RDΔK280 cells; assay: Penetration of FAM-labeled peptides into cells (confocal microscopy); type: cell-based; parameters: key to Cell penetration: membrane, 2 hours incubation / Cell penetration: membrane, 4 days incubation / Cell penetration: cytosol, 4 days incubation / Cell penetration: cytosol, 2 hours incubation / Cell penetration: nuclei, 4 days incubation / Cell penetration: nuclei, 2 hours incubation: +: Cell compartments where fluorescence of the label was detected are summarized here
Procedure: The peptides were obtained with a 6-Carboxyfluorescein (FAM) label, linked via a C-terminal lysine, to assay their ability to enter N2a cells expressing a variant of tau protein (construct tau^4RDΔK280, derived from the 4-repeat domain) in a regulatable fashion. The cells were incubated in the presence of the peptides for two hours (short term uptake) and four days (long term uptake and stability) at concentrations of 60 μM. After incubation the cells were fixed on glass cover slips and monitored by a confocal microscope (Fluoview 1000, Olympus). The localizations of the D-peptides were detected by their FAM-label (excitation: 488 nm, emission: 520 nm). In addition, cell nuclei were stained with TOPRO3 dye (excitation: 633 nm, emission: 660–670 nm). Representative pictures were taken with magnifications of 10-times for overview and 60- and 120-times for more detailed analysis.

[2] = target: T1, tau monomers (tau-441, 2N4R) (Homo sapiens, UniProt P10636); assay: ELISA binding of FAM-labeled peptides to tau monomers; settings: 20 μg/mL FAM-labeled peptide; for Binding to tau monomers (ELISA, in words): 5 μg/mL tau monomers coated, HRP anti-FITC detection; for ELISA signal, ranking among peptides: tau monomers and fibrils
T1 construct: Full lengths tau protein expression and purification; made in house
T1 sequence (P10636 1-441 isoform P10636-8): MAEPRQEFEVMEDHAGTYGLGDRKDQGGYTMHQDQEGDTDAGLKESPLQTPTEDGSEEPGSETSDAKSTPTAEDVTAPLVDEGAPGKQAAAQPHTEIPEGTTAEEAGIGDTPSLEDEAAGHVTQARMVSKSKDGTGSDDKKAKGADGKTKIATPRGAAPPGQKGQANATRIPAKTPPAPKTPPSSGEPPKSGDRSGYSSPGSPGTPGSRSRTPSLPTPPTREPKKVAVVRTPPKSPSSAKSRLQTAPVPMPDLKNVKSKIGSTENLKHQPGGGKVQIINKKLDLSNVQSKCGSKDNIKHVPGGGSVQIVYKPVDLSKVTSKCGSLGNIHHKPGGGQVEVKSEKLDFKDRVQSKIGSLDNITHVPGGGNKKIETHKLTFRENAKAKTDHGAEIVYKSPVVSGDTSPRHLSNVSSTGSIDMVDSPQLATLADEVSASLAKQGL
Procedure: (§1) Tau protein [tau-441 (2N4R) MW 45.9 kDa], purified as described in the main text, was used to prepare tau fibrils, the preparation of the fibrils was performed according to Barghorn et al. with slight modifications: 30 µM tau protein were incubated for 48 hours with 20 µM heparin MW ≈ 5000 (Fisher scientific, Schwerte, Germany) in phosphate-buffered saline (PBS) pH 7.4 at room temperature.
(§2) Polystyrene 96-well microtiter plates (Greiner Bio-One GmbH, Frickenhausen, Germany) were coated with 100 µL/well of tau monomers or fibrils in concentration of 5 µg/mL respectively, followed by incubation for 1 hour at room temperature. As control, PBS pH 7.4 containing 1 % BSA (IgG free) (Roth, Karlsruhe, Germany) was used instead of tau protein solution. After washing three times with PBS-T (phosphate-buffered saline (pH 7.4) with (0.1 %) Tween 20), and blocking for 1 h at room temperature with 1 % BSA (IgG free) (Roth, Karlsruhe, Germany) in PBS, the plate was washed three times with PBS-T. Then the peptides APT-Lys(FAM)-NH2, KNT-Lys(FAM)-NH2, LPS-Lys(FAM)-NH2, TD28-Lys(FAM)-NH2, TD28rev-Lys(FAM)-NH2 as well as d-TLKIVW-Lys(FAM)-NH2 (JPT Peptide Technologies, Berlin, Germany) were dissolved in PBS-T and added at 100 µL/well in concentration of 20 µg/mL, respectively, the plate was allowed to react for 1 h at room temperature in the dark. Subsequently, the plate was washed 3 times with PBS-T, horseradish peroxidase-conjugated sheep anti-FITC secondary antibodies (Bio-Rad, Muenchen, Germany) were diluted 1:5000 in PBS-T; the antibodies were incubated on the plate 1 h at room temperature. After incubation, the plate was washed 3 times with PBS-T. Subsequently, the substrate solution was prepared as follows: 10 mg of 3,3',5,5'-tetramethylbenzidine (TMB) (Roth, Karlsruhe, Germany) was dissolved in 1 ml dimethylsulfoxide (DMSO), 62 µL from TMB solution were mixed with 9 mL distilled water, 1 mL 1 M sodium acetate buffer (pH 6) and 10 µL 3 % hydrogen peroxide. 100 µL of the prepared substrate solution were transferred to the according wells. Finally, the reaction was stopped with 100 µL/well of 20 % H2SO4, and the plate was read at 450 nm (Multiskan GO, Thermo scientific, Germany).

[3] = target: T2, tau fibrils (tau-441, 2N4R, heparin induced) (Homo sapiens, UniProt P10636); assay: ELISA binding of FAM-labeled peptides to tau fibrils; settings: 5 μg/mL tau fibrils coated, 20 μg/mL FAM-labeled peptide, HRP anti-FITC detection
T2 construct: Full lengths tau protein expression and purification; made in house
T2 sequence (P10636 1-441 isoform P10636-8): as above
Procedure: as §1, §2

[4] = target: tau (Homo sapiens); settings: cited from earlier work
[5] = target: tau^3RD (three repeat domain construct of tau protein, K19) (human)
Chain of tau^3RD (three repeat domain construct of tau protein, K19) (human) (P10636 other isoform, or with tags, fused parts or gaps): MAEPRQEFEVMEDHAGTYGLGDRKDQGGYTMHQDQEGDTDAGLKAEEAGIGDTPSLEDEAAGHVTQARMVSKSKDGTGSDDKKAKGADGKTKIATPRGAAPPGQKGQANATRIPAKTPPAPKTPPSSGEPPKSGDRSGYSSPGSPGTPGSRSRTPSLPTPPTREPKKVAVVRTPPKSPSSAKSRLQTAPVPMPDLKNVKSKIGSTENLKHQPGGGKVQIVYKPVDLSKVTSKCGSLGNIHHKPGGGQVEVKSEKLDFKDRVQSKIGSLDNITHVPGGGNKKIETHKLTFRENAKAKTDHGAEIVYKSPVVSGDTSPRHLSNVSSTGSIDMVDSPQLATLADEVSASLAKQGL

[6] = 60 μM FAM labeled peptide, N2aTau^4RDΔK280 cells, fixed cells, confocal microscope, FAM fluorescence
[7] = 60 μM FAM labeled peptide, N2aTau^4RDΔK280 cells, fixed cells, confocal microscope, FAM fluorescence, nuclei stained with TOPRO3

| Molecule | Cell penetration: cytosol, 2 hours incubation [1, 6] | Cell penetration: cytosol, 4 days incubation [1, 6] | Cell penetration: membrane, 2 hours incubation [1, 6] | Cell penetration: membrane, 4 days incubation [1, 6] | Cell penetration: nuclei, 2 hours incubation [1, 7] | Cell penetration: nuclei, 4 days incubation [1, 7] | Binding to tau monomers (ELISA, in words) [2] | Binding to tau fibrils (ELISA, in words) [3] | Cell penetration, overall judgement (in words) ([1]; 60 μM FAM-labeled peptide, N2a cells, up to 4 days) | Kd [4] | ELISA signal, ranking among peptides [2] | half maximal effect concentration, inhibition of tau^3RD (K19) fibril formation (K19 with K19), ThS fluorescence in vitro [5] |
| --- | --- | --- | --- | --- | --- | --- | --- | --- | --- | --- | --- | --- |
| TD28rev-Lys(FAM)-NH2: TD28rev with 6-Carboxyfluorescein (FAM) label linked via a C-terminal lysine ([dP][dP][dY][dY][dL][dR][dM][dQ][dL][dS][dT][dT]K(6FAM)-NH2; N-terminus assumed; SMILES CSCC[C@@H](NC(=O)[C@@H](CCCNC(=N)N)NC(=O)[C@@H](CC(C)C)NC(=O)[C@@H](Cc1ccc(O)cc1)NC(=O)[C@@H](Cc1ccc(O)cc1)NC(=O)[C@H]1CCCN1C(=O)[C@H]1CCCN1)C(=O)N[C@H](CCC(N)=O)C(=O)N[C@H](CC(C)C)C(=O)N[C@H](CO)C(=O)N[C@@H](C(=O)N[C@@H](C(=O)N[C@@H](CCCCNC(=O)c1ccc2c(c1)C1(OC2=O)c2ccc(O)cc2Oc2cc(O)ccc21)C(N)=O)[C@H](C)O)[C@H](C)O) | + | + | + | + | + | + | binding could be demonstrated | binding could be demonstrated | – | – | – | – |
| APT-Lys(FAM)-NH2: APT with 6-Carboxyfluorescein (FAM) label linked via a C-terminal lysine ([dA][dP][dT][dL][dL][dR][dL][dH][dS][dL]G[dA]K(6FAM)-NH2; N-terminus assumed; SMILES CC(C)C[C@@H](NC(=O)[C@@H](CO)NC(=O)[C@@H](Cc1c[nH]cn1)NC(=O)[C@@H](CC(C)C)NC(=O)[C@@H](CCCNC(=N)N)NC(=O)[C@@H](CC(C)C)NC(=O)[C@@H](CC(C)C)NC(=O)[C@H](NC(=O)[C@H]1CCCN1C(=O)[C@@H](C)N)[C@H](C)O)C(=O)NCC(=O)N[C@H](C)C(=O)N[C@@H](CCCCNC(=O)c1ccc2c(c1)C1(OC2=O)c2ccc(O)cc2Oc2cc(O)ccc21)C(N)=O) | – | + | + | + | – | – | binding could be demonstrated | binding could be demonstrated | worst cell penetration properties | – | – | – |
| D-peptide D-TLKIVW | – | – | – | – | – | – | – | – | – | 2000 nM | – | – |
| KNT-Lys(FAM)-NH2: KNT with 6-Carboxyfluorescein (FAM) label linked via a C-terminal lysine ([dK][dN][dT][dP][dQ][dH][dR][dK][dL][dR][dL][dS]K(6FAM)-NH2; N-terminus assumed; SMILES CC(C)C[C@@H](NC(=O)[C@@H](CCCNC(=N)N)NC(=O)[C@@H](CC(C)C)NC(=O)[C@@H](CCCCN)NC(=O)[C@@H](CCCNC(=N)N)NC(=O)[C@@H](Cc1c[nH]cn1)NC(=O)[C@@H](CCC(N)=O)NC(=O)[C@H]1CCCN1C(=O)[C@H](NC(=O)[C@@H](CC(N)=O)NC(=O)[C@H](N)CCCCN)[C@H](C)O)C(=O)N[C@H](CO)C(=O)N[C@@H](CCCCNC(=O)c1ccc2c(c1)C1(OC2=O)c2ccc(O)cc2Oc2cc(O)ccc21)C(N)=O) | + | + | + | + | – | – | binding could be demonstrated | binding could be demonstrated | – | – | highest | – |
| TD28-Lys(FAM)-NH2: TD28 with 6-Carboxyfluorescein (FAM) label linked via a C-terminal lysine ([dT][dT][dS][dL][dQ][dM][dR][dL][dY][dY][dP][dP]K(6FAM)-NH2; N-terminus assumed; SMILES CSCC[C@@H](NC(=O)[C@@H](CCC(N)=O)NC(=O)[C@@H](CC(C)C)NC(=O)[C@@H](CO)NC(=O)[C@H](NC(=O)[C@H](N)[C@H](C)O)[C@H](C)O)C(=O)N[C@H](CCCNC(=N)N)C(=O)N[C@H](CC(C)C)C(=O)N[C@H](Cc1ccc(O)cc1)C(=O)N[C@H](Cc1ccc(O)cc1)C(=O)N1CCC[C@@H]1C(=O)N1CCC[C@@H]1C(=O)N[C@@H](CCCCNC(=O)c1ccc2c(c1)C1(OC2=O)c2ccc(O)cc2Oc2cc(O)ccc21)C(N)=O) | + | + | + | + | – | + | binding could be demonstrated | binding could be demonstrated | – | – | highest | – |
| TTSLQMRLYYPP [TL28] | – | – | – | – | – | – | – | – | – | – | – | > 200 µM |
